In publication PMC9536601 one finds Kd data, which are given here for two substances.

A word on the Kd: it is the free concentration of one partner at which half of the binding sites on the other are occupied at equilibrium, for simple one-to-one binding. Low readings indicate higher affinity, high ones lower affinity.

Assay [1] has as its target chimeric hexon of Ad5:H6.3 (Ad5 vector, hexon residues 112-593 from Ad6 hexon, HVR7 IGNTETF), on the virion (human adenovirus type 5 | human adenovirus type 6) (UniProt P04133). Briefly: SPR; Biacore T200; about 300 to 5,000 RU of Ad virions immobilised on a CM5 chip, coagulation factors flowed over at four concentrations, 50 uL/min; 10 mM HEPES, 150 mM NaCl, 1 mM CaCl2, 0.5 mM MgCl2, 0.1% BSA, 0.05% polysorbate 20, pH 7.4; global fit to a 1:1 kinetic interaction model, double referencing. (In general: In SPR one partner is held on a chip, and binding of the other changes the refractive index at the surface.)

Assay [2] deals with chimeric hexon of Ad5:H1.6 (Ad5 vector, hexon residues 112-593 from Ad1 hexon, HVR7 IGVTDRY), on the virion (human adenovirus type 5 | human adenovirus type 1) (UniProt P04133). The assay is described as above.

Regarding “mouse prothrombin (coagulation factor II) (from UniProt P19221 44-618) (natural protein)”, the Kd in assay [1] is 1600 nM.
On to “mouse coagulation factor X (from UniProt O88947 41-481) (natural protein)”, for which the results for the Kd in assay [2] and in assay [1] were 4.2 µM and 1200 nM, respectively.
